# Source: patent US20250325643A1 (Genmab, published 2025)
# T1: human CD27 expressed on cells (T cells, transfected HEK293F cells, Daudi cells, NFκB-luc2/CD27 Jurkat … (human, UniProt P26842 20-240))
# T1 construct: also called TNFRSF7
# T1 sequence: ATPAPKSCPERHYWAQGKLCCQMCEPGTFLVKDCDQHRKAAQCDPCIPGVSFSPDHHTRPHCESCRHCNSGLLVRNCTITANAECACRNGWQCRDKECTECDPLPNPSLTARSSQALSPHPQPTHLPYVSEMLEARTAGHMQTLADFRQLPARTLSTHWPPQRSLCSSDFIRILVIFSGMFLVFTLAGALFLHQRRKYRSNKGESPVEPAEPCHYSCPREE
# T2: cynomolgus monkey CD27 expressed on cells (cynomolgus monkey T cells, transfected HEK293F cells) (cynomolgus monkey, UniProt P26842 20-260 (human entry))
# T2 construct: also called cyno CD27
# T2 chain: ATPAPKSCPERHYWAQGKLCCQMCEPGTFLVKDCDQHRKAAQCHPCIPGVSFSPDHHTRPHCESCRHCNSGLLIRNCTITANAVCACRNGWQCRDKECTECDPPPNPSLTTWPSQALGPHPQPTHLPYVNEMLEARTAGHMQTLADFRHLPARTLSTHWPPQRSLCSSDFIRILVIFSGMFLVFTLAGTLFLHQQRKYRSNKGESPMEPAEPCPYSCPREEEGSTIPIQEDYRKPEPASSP
# T3: human CD27-A59T variant expressed on transiently transfected HEK293F cells (human, UniProt P26842 20-260)
# T3 sequence: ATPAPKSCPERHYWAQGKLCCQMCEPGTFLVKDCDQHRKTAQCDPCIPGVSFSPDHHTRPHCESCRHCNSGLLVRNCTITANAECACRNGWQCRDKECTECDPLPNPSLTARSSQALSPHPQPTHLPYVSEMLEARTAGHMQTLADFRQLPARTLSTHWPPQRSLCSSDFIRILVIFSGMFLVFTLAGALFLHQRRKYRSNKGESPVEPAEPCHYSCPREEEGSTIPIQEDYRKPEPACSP
# B1: IgG1-CD27-A carrying mutations F405L-L234F-L235E-D265A in the IgG Fc domain (antibody, V domains shown)
# VH: QVQLMQSGSELKKPGASVKVSCRASGYTFTTYAMNWVRQAPGQGPEWMGWINTNTGNPTYAQGFTGRFVFSLDTTVTTTYLQISSLKAEDTAVYFCAREAGSFDYWGQGTLVTVSS
# VL: QSALTQPASVSGSPGQSITISCTGTSSDVYYYNYVSWYQQHPGRAPKLVIYDVSNRPSGVSNRFSGSKSGNTASLTISGLRAEDEADYYCSSYTVNRVWVFGGGTKLTVL
# B2: IgG1-b12-FEAL (antibody, V domains shown)
# VH: QVQLVQSGAEVKKPGASVKVSCQASGYRFSNFVIHWVRQAPGQRFEWMGWINPYNGNKEFSAKFQDRVTFTADTSANTAYMELRSLRSADTAVYYCARVGPYSWDDSPQDNYYMDVWGKGTTVIVSS
# VL: EIVLTQSPGTLSLSPGERATFSCRSSHSIRSRRVAWYQHKPGQAPRLVIHGVSNRASGISDRFSGSGSGTDFTLTITRVEPEDFALYYCQVYGASSYTFGQGTKLERK
# notes: also called ctrl
# B3: IgG1-CD27-A (wild-type IgG1 Fc) (antibody)
# VH: not shown
# VL: QSALTQPASVSGSPGQSITISCTGTSSDVYYYNYVSWYQQHPGRAPKLVIYDVSNRPSGVSNRFSGSKSGNTASLTISGLRAEDEADYYCSSYTVNRVWVFGGGTKLTVLGQPKAAPSVTLFPPSSEELQANKATLVCLISDFYPGAVTVAWKADSSPVKAGVETTTPSKQSNNKYAASSYLSLTPEQWKSHRSYSCQVTHEGSTVEKTVAPTECS
# notes: Human IgG1 heavy chain backbone, wild-type Fc; also called WT IgG1-CD27-A; IgG-CD27-A
# B4: IgG1-b12 (wild-type IgG1 Fc) (antibody)
# VH: not shown
# VL: EIVLTQSPGTLSLSPGERATFSCRSSHSIRSRRVAWYQHKPGQAPRLVIHGVSNRASGISDRFSGSGSGTDFTLTITRVEPEDFALYYCQVYGASSYTFGQGTKLERKRTVAAPSVFIFPPSDEQLKSGTASVVCLLNNFYPREAKVQWKVDNALQSGNSQESVTEQDSKDSTYSLSSTLTLSKADYEKHKVYACEVTHQGLSSPVTKSFNRGEC
# notes: also called WT IgG1-b12; ctrl
# B5: IgG1-b12-P329R-E345R (antibody)
# VH: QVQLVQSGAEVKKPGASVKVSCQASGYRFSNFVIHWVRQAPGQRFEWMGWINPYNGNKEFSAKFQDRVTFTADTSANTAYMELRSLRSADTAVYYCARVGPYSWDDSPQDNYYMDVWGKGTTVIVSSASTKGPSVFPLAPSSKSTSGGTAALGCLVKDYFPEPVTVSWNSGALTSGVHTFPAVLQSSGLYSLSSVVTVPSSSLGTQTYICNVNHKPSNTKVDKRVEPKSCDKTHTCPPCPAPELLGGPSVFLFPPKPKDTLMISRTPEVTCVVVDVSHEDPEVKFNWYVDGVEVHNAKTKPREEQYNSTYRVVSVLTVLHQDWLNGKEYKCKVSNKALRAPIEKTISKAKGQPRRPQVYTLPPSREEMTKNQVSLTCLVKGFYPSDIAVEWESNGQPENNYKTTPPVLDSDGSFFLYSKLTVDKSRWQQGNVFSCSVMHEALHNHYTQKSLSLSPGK
# VL: B4 VL
# notes: also called ctrl; IgG1-b12-E345R-P329R
# Key:
# [1] = target: T1, human CD27 expressed on cells (T cells, …); test: flow cytometry on HEK293F cells transiently transfected with human CD27, PE-labelled goat anti-human IgG, median MFI PE
# [2] = target: T1, human CD27 expressed on cells (T cells, …); test: flow cytometry on T cells in human PBMC (endogenous CD27), PE-labelled goat anti-human IgG, median MFI PE
# Procedure: (§1) Non-binding control antibody IgG1-b12-FEAR was used as negative control antibody. *N.B. IgG1-CD27-A, -B, -C, -D and -E carried mutations F405L-L234F-L235E-D265A in the IgG Fc domain, which are functionally irrelevant in the context of this experiment.
# (§2) Cells were seeded in 96-wells plates (100,000 cells per well; Greiner Bio-one, Cat #650180) for sequential incubations, with washing steps in between with FACS buffer, consisting of PBS (Lonza, Cat #BE17-517Q)+1% BSA (Roche, Cat #10735086001)+0.02% Sodium Azide (Bio-World, Cat #41920044-3). The following incubations were applied: antibody concentration series (0.0001-10 μg/mL final concentration) for 30 min at 4° C.; live/dead marker FVS510 (BD, Cat #564406, diluted 1:1,000 in PBS) for 20 min at RT; PE-labeled polyclonal goat anti-human IgG (Jackson Immuno Research, Cat #109-116-098, diluted 1:500) for 30 min at 4° C.; and anti-CD3 antibody for T-cell identification (anti-human CD3: BD, Cat #555335, diluted 1:10; anti-cyno CD3: Miltenyi, Cat #130-091-998, diluted 1:10) for 30 min at 4° C. All samples were analyzed on a FACSCelesta flow cytometer (BD) and FlowJo software. Data were processed and visualized using GraphPad Prism.
# [3] = target: T2, cynomolgus monkey CD27 expressed on …; test: flow cytometry on T cells in cynomolgus monkey PBMC (endogenous CD27), PE-labelled goat anti-human IgG, median MFI PE
# Procedure: as §1, §2
# [4] = target: T2, cynomolgus monkey CD27 expressed on …; test: flow cytometry on HEK293F cells transiently transfected with cynomolgus monkey CD27, PE-labelled goat anti-human IgG, median MFI PE
# Procedure: as §1, §2
# [5] = target: T3, human CD27-A59T variant expressed on …; test: flow cytometry on HEK293F cells transiently transfected with human CD27-A59T, PE-labelled goat anti-human IgG, median MFI PE
# Procedure: Approximately 19% of the human population expresses a natural CD27 variant harboring an A59T mutation in the extracellular domain (SEQ ID NO. 2). […] Non-binding antibody IgG1-b12-FEAL was used as a negative control antibody. […] After incubation, antibodies were PE-labeled with polyclonal goat anti-human IgG. Binding was analyzed on a FACSCelesta flow cytometer (BD) and FlowJo software. Data were processed and visualized using GraphPad Prism v.8. *N.B. IgG1-CD27-A, -B and -C carried mutations F405L-L234F-L235E-D265A in the IgG Fc domain, which are functionally irrelevant in the context of this experiment.
# [6] = target: T4, human C1q (from normal human serum) (human, UniProt P02745 23-245; P02746 28-253; P02747 29-245); test: flow cytometry: human T cells opsonised with the antibody, 20% normal human serum as source of C1q, FITC-labelled rabbit anti-human C1q
# T4 construct: 20% normal human serum was the source of C1q
# [7] = target: T5, recombinant His-tagged human FcγRIa (Sino Biological, Cat #10256-H08S-B) (human, UniProt P12314 16-288); test: SPR (Biacore): His-tagged FcγRIa captured on an anti-His chip, antibody injected; resonance units against antibody concentration
# T5 construct: Bought protein; not shown: His tag
# Procedure: Binding of IgG1-CD27-A-P329R-E345R to human FcγR variants was analyzed using a Biacore surface plasmon resonance (SPR) system and compared to an anti-HIV gp120 antibody IgG1-b12 (ctrl). Biacore Series S Sensor Chips CM5 (Cytiva, Cat #29104988) were covalently coated with anti-His antibody using amine-coupling and His capture kits (Cytiva, Cat #BR100050 and Cat #29234602) according to the manufacturer's instructions. […] After three cycles of buffer, antibody samples were injected for 36 cycles to generate binding curves using antibody ranges of 0-3,000 nM for FcγRI and 0-10,000 nM for the other FcγRs. Each sample that was analyzed on an FcR-coated surface (Active Surface) was also analyzed on a parallel flow-cell without FcR (Reference Surface), which was used for background correction. Dissociation from the anti-His-coated surface was performed by regeneration of the surface using 10 mM Glycine-HCl pH 1.5 (Cytiva, Cat #BR100354). Sensograms were generated using Biacore Insight Evaluation software (Cytiva) and a four-parameter logistic (4PL) fit was applied to calculate relative binding of IgG1-CD27-A-P329R-E345R against the reference sample (ctrl).
# [8] = target: T1, human CD27 expressed on cells (T cells, …); test: flow cytometry on CD4+ T cells in human PBMC, FITC-conjugated goat anti-human IgG F(ab')2, median FITC
# Procedure: Binding of IgG1-CD27-A-P329R-E345R to CD27 on human healthy donor T cells was characterized in more detail using flow cytometry. Anti-HIV gp120 antibody variant IgG1-b12-P329R-E345R was used as non-binding control antibody (ctrl). Human PBMCs were isolated from buffy coats obtained from human healthy donors. PBMCs (1×10⁵ cells/well) in FACS buffer were added to polystyrene 96-well round-bottom plates (Greiner bio-one, Cat #650101) and pelleted by centrifugation at 300×g for 3 min at 4° C. The cells were resuspended in 50 μL/well serial antibody dilutions in FACS buffer (range 0.0015 to 10 μg/mL in 3-fold dilution steps) and incubated for 30 min at 4° C. Cells were pelleted, washed twice with FACS buffer and incubated in 50 μL/well with FITC-conjugated secondary antibody (FITC AffiniPure F(ab′)₂ fragment goat anti-human IgG, F(ab′)₂ fragment specific, Jackson ImmunoResearch, Cat #109-096-097, diluted 1:100) for 30 min at 4° C. in the dark. […] The samples were measured by flow cytometry on an LSRFortessa (BD) flow cytometer and analyzed using FlowJo software. Binding curves were analyzed using non-linear regression (sigmoidal dose-response with variable slope) using GraphPad Prism 8 software.
# [9] = target: T6, human FcγRIa on monocyte-derived macrophages (M0, M1, hMDM) (human, UniProt P12314 16-374); test: flow cytometry on M0 monocyte-derived macrophages, PE-labelled goat anti-human IgG
# T6 construct: whole, on cells; The macrophages also express FcγRII and FcγRIIIa
# T6 sequence (P12314 16-374): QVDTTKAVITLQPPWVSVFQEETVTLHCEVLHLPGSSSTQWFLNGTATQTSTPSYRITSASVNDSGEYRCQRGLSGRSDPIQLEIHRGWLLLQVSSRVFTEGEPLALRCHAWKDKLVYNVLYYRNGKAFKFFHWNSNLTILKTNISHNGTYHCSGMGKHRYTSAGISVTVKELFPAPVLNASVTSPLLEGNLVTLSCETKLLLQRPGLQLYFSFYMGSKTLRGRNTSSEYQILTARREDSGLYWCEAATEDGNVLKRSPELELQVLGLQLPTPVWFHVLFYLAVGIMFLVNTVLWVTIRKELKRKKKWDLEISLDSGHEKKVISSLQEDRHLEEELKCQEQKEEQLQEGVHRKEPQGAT
# T4 sequence (P02745 23-245 limits assumed, chain 1 of 3): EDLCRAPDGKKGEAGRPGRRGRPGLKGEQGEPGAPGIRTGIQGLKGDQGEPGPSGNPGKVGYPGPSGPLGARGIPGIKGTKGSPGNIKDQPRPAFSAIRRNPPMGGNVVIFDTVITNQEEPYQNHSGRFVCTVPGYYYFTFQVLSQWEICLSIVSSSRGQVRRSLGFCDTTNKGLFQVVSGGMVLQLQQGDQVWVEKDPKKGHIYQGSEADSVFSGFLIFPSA
# T4 sequence (P02746 28-253 limits assumed, chain 2 of 3): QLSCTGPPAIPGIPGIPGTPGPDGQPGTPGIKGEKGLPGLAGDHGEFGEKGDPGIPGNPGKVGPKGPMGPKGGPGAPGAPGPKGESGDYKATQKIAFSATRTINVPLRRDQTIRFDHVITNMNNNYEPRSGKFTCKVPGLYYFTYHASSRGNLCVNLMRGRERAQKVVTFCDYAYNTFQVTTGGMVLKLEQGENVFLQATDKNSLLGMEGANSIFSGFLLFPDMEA
# T4 sequence (P02747 29-245 limits assumed, chain 3 of 3): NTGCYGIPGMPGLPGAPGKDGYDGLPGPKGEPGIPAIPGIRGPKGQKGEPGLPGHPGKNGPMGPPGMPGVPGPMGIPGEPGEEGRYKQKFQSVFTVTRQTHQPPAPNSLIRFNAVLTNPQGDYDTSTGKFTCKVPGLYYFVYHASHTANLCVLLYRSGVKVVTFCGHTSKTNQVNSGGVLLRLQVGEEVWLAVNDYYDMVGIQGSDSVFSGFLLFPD
# T5 sequence (P12314 16-288 limits assumed, stated change not applied): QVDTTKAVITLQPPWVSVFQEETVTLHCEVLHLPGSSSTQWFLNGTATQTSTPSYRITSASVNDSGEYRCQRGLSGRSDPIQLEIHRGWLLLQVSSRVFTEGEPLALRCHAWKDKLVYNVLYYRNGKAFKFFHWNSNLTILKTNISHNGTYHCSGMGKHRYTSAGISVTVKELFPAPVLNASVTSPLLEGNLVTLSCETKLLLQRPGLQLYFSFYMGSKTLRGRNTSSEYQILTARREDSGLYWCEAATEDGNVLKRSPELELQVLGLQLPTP
binder,measurement,setting,value
B1,EC50 (read off the curve),[1],~0.1 µg/mL
same,EC50 (read off the curve),[2],~0.04 µg/mL
same,EC50 (read off the curve),[3],~0.04 µg/mL
same,EC50 (read off the curve),[4],~0.06 µg/mL
same,EC50 (read off the curve),[5],~0.2 µg/mL
B2,binding result,[5],no binding (tested: 10 µg/mL)
B3,binding result,[6],no binding (tested: 15 µg/mL)
B4,EC50 (read off the curve),[7],~60 nM
B5,binding result,[8],no binding (tested: 10 µg/ml)
same,binding result,[9],no binding (tested: 30 µg/mL)
